Source: patent publication US20230193513A1 (TWIST BIOSCIENCE, published 2023)

B1: GLP1R-243 (antibody, human IgG2, lambda, V domains shown)
VH: QVQLVQSGAEVKKPGSSVKVSCKASGGTFSTYGINWVRQAPGQGLEWMGGIIPIFGTANYAQKFQGRVTITADESTSTAYMELSSLRSEDTAVYYCARANQHFFGKGDNLAARDFINWLIQTKITDGSNPGYHYYGMDVWGQGTLVTVSS
VL: QSVLTQPPSVSAAPGQKVTISCSGSRSNIGKNYVSWYQQLPGTAPKLLIYENNERPSGIPDRFSGSKSGTSATLGITGLQTGDEADYYCSSYTTSNTQVFGGGTKLTVLG
B2: GLP1R-240 (antibody, human IgG2, lambda)
heavy: QVQLVQSGAEVKKPGSSVKVSCKASGGTFNNYGISWVRQAPGQGLEWMGGIIPVFGTANYAQKFQGRVTITADESTSTAYMELSSLRSEDTAVYYCARDMYYDFFGLGTFTSDVSSYLEGQAAKEFIAWLVKGVSPEVVPADDAFDIWGQGTLVTVSSASASTKGPSVFPLAPCSRSTSESTAALGCLVKDYFPEPVTVSWNSGALTSGVHTFPAVLQSSGLYSLSSVVTVPSSNFGTQTYTCNVDHKPSNTKVDKTVERKCCVECPPCPAPPVAGPSVFLFPPKPKDTLMISRTPEVTCVVVDVSHEDPEVQFNWYVDGVEVHNAKTKPREEQFNSTFRVVSVLTVVHQDWLNGKEYKCKVSNKGLPAPIEKTISKTKGQPREPQVYTLPPSREEMTKNQVSLTCLVKGFYPSDIAVEWESNGQPENNYKTTPPMLDSDGSFFLYSKLTVDKSRWQQGNVFSCSVMHEALHNHYTQKSLSLSPG
light: QSVLTQPPSVSAAPGQKVTISCSGSSSSIGNNYVSWYQQLPGTAPKLLIYANNKRPSGIPDRFSGSKSGTSATLGITGLQTGDEADYYCATWSSSPRGWVFGGGTKLTVLGQPKAAPSVTLFPPSSEELQANKATLVCLISDFYPGAVTVAWKADSSPVKAGVETTTPSKQSNNKYAASSYLSLTPEQWKSHRSYSCQVTHEGSTVEKTVAPTECS
B3: GLP1R-238 (antibody, human IgG2, lambda, V domains shown)
VH: QVQLVQSGAEVKKPGSSVKVSCKASGGSFSSHAISWVRQAPGQGLEWMGGIIPIFGAPNYAQKFQGRVTITADESTSTAYMELSSLRSEDTAVYYCARANQHFSQAGRAARVPGPSSSLGPRGYHYYGMDVWGQGTLVTVSS
VL: QSVLTQPPSVSAAPGQKVTISCSGSTSNIANNYVSWYQQLPGTAPKLLIYANNRRPSGIPDRFSGSKSGTSATLGITGLQTGDEADYYCGAWDVRLDVGVFGGGTKLTVLG
B4: GLP1R-244 (antibody, human IgG2, lambda, V domains shown)
VH: QVQLVQSGAEVKKPGSSVKVSCKASGGTFSSYAISWVRQAPGQGLEWMGGIIPIFGTANYAQKFQGRVTITADESTSTAYMELSSLRSEDTAVYYCARANQHFAATGAGEGQAAKEFIAWLVKGRVEIGYHYYGMDVWGQGTLVTVSS
VL: QSVLTQPPSVSAAPGQKVTISCSGSSSNIGNNVVSWYQQLPGTAPKLLIYDNDKRRSGIPDRFSGSKSGTSATLGITGLQTGDEADYYCGSWDTSLSVWVFGGGTKLTVLG
B5: GLP1R-239 (antibody, human IgG2, lambda)
heavy: QVQLVESGGGVVQPGRSLRLSCAASGFDFSNYGMHWVRQAPGKGLEWVADISYEGSNKYYADSVKGRFTISRDNSKNTLYLQMNSLRAEDTAVYYCAKHMSMQSQGLDNLAARDFINWLIQTKITDGFELSRADLVGDAFDVWGQGTLVTVSSASASTKGPSVFPLAPCSRSTSESTAALGCLVKDYFPEPVTVSWNSGALTSGVHTFPAVLQSSGLYSLSSVVTVPSSNFGTQTYTCNVDHKPSNTKVDKTVERKCCVECPPCPAPPVAGPSVFLFPPKPKDTLMISRTPEVTCVVVDVSHEDPEVQFNWYVDGVEVHNAKTKPREEQFNSTFRVVSVLTVVHQDWLNGKEYKCKVSNKGLPAPIEKTISKTKGQPREPQVYTLPPSREEMTKNQVSLTCLVKGFYPSDIAVEWESNGQPENNYKTTPPMLDSDGSFFLYSKLTVDKSRWQQGNVFSCSVMHEALHNHYTQKSLSLSPG
light: QSVLTQPPSVSAAPGQKVTISCSGSTSNIEKNYVSWYQQLPGTAPKLLIYGNDQRPSGIPDRFSGSKSGTSATLGITGLQTGDEADYYCGTWENRLSAVVFGGGTKLTVLGQPKAAPSVTLFPPSSEELQANKATLVCLISDFYPGAVTVAWKADSSPVKAGVETTTPSKQSNNKYAASSYLSLTPEQWKSHRSYSCQVTHEGSTVEKTVAPTECS
B6: GLP1R-242 (antibody, human IgG2, lambda)
heavy: QVQLVQSGAEVKKPGSSVKVSCKASGGTFSSYEISWVRQAPGQGLEWMGGIIPILGIANYAQKFQGRVTITADESTSTAYMELSSLRSEDTAVYYCAKHMSMQADTGTFTSDVSSYLEGQAAKEFIAWLVKGEFSSRADLVGDAFDVWGQGTLVTVSSASASTKGPSVFPLAPCSRSTSESTAALGCLVKDYFPEPVTVSWNSGALTSGVHTFPAVLQSSGLYSLSSVVTVPSSNFGTQTYTCNVDHKPSNTKVDKTVERKCCVECPPCPAPPVAGPSVFLFPPKPKDTLMISRTPEVTCVVVDVSHEDPEVQFNWYVDGVEVHNAKTKPREEQFNSTFRVVSVLTVVHQDWLNGKEYKCKVSNKGLPAPIEKTISKTKGQPREPQVYTLPPSREEMTKNQVSLTCLVKGFYPSDIAVEWESNGQPENNYKTTPPMLDSDGSFFLYSKLTVDKSRWQQGNVFSCSVMHEALHNHYTQKSLSLSPG
light: QSVLTQPPSVSAAPGQKVTISCSGSSSNIENNDVSWYQQLPGTAPKLLIYGNDQRPSGIPDRFSGSKSGTSATLGITGLQTGDEADYYCGTWDNTLSAGVFGGGTKLTVLGQPKAAPSVTLFPPSSEELQANKATLVCLISDFYPGAVTVAWKADSSPVKAGVETTTPSKQSNNKYAASSYLSLTPEQWKSHRSYSCQVTHEGSTVEKTVAPTECS
B7: GLP1R-241 (antibody, human IgG2, lambda)
heavy: QVQLVQSGAEVKKPGSSVKVSCKASGGTFSDYAISWVRQAPGQGLEWMGGIIPIFGTTNYAQKFQGRVTITADESTSTAYMELSSLRSEDTAVYYCAKHMSMQGSVAGGTFTSDVSSYLEGQAAKEFIAWLVKGGPSFIRADLVGDAFDVWGQGTLVTVSSASASTKGPSVFPLAPCSRSTSESTAALGCLVKDYFPEPVTVSWNSGALTSGVHTFPAVLQSSGLYSLSSVVTVPSSNFGTQTYTCNVDHKPSNTKVDKTVERKCCVECPPCPAPPVAGPSVFLFPPKPKDTLMISRTPEVTCVVVDVSHEDPEVQFNWYVDGVEVHNAKTKPREEQFNSTFRVVSVLTVVHQDWLNGKEYKCKVSNKGLPAPIEKTISKTKGQPREPQVYTLPPSREEMTKNQVSLTCLVKGFYPSDIAVEWESNGQPENNYKTTPPMLDSDGSFFLYSKLTVDKSRWQQGNVFSCSVMHEALHNHYTQKSLSLSPG
light: QSVLTQPPSVSAAPGQKVTISCSGISSNIGNNYVSWYQQLPGTAPKLLIYDDDQRPSGIPDRFSGSKSGTSATLGITGLQTGDEADYYCGTWDNILSAAVFGGGTKLTVLGQPKAAPSVTLFPPSSEELQANKATLVCLISDFYPGAVTVAWKADSSPVKAGVETTTPSKQSNNKYAASSYLSLTPEQWKSHRSYSCQVTHEGSTVEKTVAPTECS
B8: GLP1R-59-2 (antibody)
chain 1: QVQLVESGGGVVQPGRSLRLSCAASGFTFSNYGMSWVRQAPGKGLEWVAVISYDAGNKYYADSVKGRFTISRDNSKNTLYLQMNSLRAEDTAVYYCARDMYYDFETVVEGIQWYEALKAGKLGEVVPADDAFDIWGQGTLVTVSSASTKGPSVFPLAPCSRSTSESTAALGCLVKDYFPEPVTVSWNSGALTSGVHTFPAVLQSSGLYSLSSVVTVPSSNFGTQTYTCNVDHKPSNTKVDKTVERKCCVECPPCPAPPVAGPSVFLFPPKPKDTLMISRTPEVTCVVVDVSHEDPEVQFNWYVDGVEVHNAKTKPREEQFNSTFRVVSVLTVVHQDWLNGKEYKCKVSNKGLPAPIEKTISKTKGQPREPQVYTLPPSREEMTKNQVSLTCLVKGFYPSDIAVEWESNGQPENNYKTTPPMLDSDGSFFLYSKLTVDKSRWQQGNVFSCSVMHEALHNHYTQKSLSLSPGK
chain 2: HGEGTFTSDVSSYLEEQAAKEFIAWLVKGGGGGGGSGGGGSGGGGSQSALTQPASVSGSPGQSITISCTGTSNDIGTYNYVSWYQQHPGKAPKLMIYDVSGRPSGVSNRFSGSKSGNTASLTISGLQAEDEADYYCSSYTTSSTEVFGGGTKLTVLGQPKAAPSVTLFPPSSEELQANKATLVCLISDFYPGAVTVAWKADSSPVKAGVETTTPSKQSNNKYAASSYLSLTPEQWKSHRSYSCQVTHEGSTVEKTVAPTECS

Key:
Assay in all cases: cell-based or functional assay
[1] = target: T1, glucagon-like peptide-1 receptor (GLP1R) (Homo sapiens (Human), UniProt P43220 24-463)
T1 sequence (P43220 24-463): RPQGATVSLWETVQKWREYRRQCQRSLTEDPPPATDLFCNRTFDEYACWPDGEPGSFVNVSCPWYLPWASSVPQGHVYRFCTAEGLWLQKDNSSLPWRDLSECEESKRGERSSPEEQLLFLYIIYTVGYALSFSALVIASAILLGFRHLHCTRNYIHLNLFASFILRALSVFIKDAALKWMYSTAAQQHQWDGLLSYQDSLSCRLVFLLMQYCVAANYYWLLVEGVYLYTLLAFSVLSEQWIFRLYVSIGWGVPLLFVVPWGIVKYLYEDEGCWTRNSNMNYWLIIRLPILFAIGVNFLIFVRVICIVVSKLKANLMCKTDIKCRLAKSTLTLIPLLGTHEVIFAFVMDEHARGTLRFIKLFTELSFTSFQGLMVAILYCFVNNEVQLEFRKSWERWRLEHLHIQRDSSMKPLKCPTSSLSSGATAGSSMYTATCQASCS

[2] = target: T1, glucagon-like peptide-1 receptor (GLP1R); remark: listed apart in the source
[3] = target: T1, glucagon-like peptide-1 receptor (GLP1R); remark: listed apart in the source
[4] = target: T1, glucagon-like peptide-1 receptor (GLP1R); remark: listed apart in the source

Binder | EC50 (nM) of GLP1 (7-36) in the cAMP assay after 100 nM IgG [1] [nM] | other results
B1 | 0.128 | –
B2 | 0.0654 | –
B3 | 0.0879 | –
B4 | 0.154 | –
B5 | 0.0799 | –
B6 | ~0.0653 | –
B7 | 0.103 | fold difference of the EC50 against no antibody [2]: 1.7 fold; EC50 (nM) of GLP1 (7-36)-induced signaling with GLP1R IgG (+100 nM) [3]: 0.103 nM
B8 | – | EC50 (nM) of the IgG as agonist, functional assay on GLP-1R overexpressing cells [4]: 0.842 nM
